Two molecules from patent US6306613, “Modulators of leaderless protein export and methods for identifying and using the same” (Ciblex Corporation, dated 2001) can be followed below.

Test [1] deals with T1, rat Na+/K+ ATPase α1 subunit (rat, UniProt P06685). In words: co-immunoprecipitation from co-transfected COS cells with anti-Na+/K+ ATPase α1 or anti-hCG antibody (FIG. 6).
In test [2] the target is T1, rat Na+/K+ ATPase α1 subunit. The test is described as follows: co-immunoprecipitation from co-transfected COS cells (FIGS. 7-9).

B1: human chorionic gonadotropin α (hCG-α) (ligand)
chain: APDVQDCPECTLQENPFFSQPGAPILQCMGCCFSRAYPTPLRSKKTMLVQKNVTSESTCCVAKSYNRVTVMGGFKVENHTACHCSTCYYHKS
Take B1: the binding result in test [1] was “no binding”.

B2: neomycin phosphotransferase (NPT) (enzyme)
chain: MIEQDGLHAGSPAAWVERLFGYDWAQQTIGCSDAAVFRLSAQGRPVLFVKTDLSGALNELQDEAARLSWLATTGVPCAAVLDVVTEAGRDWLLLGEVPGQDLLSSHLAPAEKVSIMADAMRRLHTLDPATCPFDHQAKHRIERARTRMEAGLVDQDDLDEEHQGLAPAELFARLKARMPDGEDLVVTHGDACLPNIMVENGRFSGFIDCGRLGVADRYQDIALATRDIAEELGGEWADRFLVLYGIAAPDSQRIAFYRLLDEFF
As for B2, the binding result in test [2] is given as “no binding”.
